The numbers were not newly measured in article PMC7751257, which cites them from elsewhere.

The series addresses Spike RBD RBD (SARS-CoV-2) (UniProt P0DTC2).

As for “SBP1 α1 helix 23-mer (from UniProt Q9BYF1)”, the Kd – broadly, the equilibrium constant for the complex coming apart – is 47 nM.
